Residue numbers refer to the chain shown, from its start. Values belong to the binder of their own block, whether it stands above or below them.
How the values were obtained:
[1] = biological target: recombinant Fc chimeric conjugate of human EGFR (human) (UniProt P00533); assay: ELISA, coated antigen, B-cell supernatant, IgG 146,1 ng/ml
[2] = biological target: recombinant Fc chimeric conjugate of human HER3 (human) (UniProt P21860); assay: as above
[3] = biological target: recombinant Fc chimeric conjugate of human EGFR (human) (UniProt P00533); assay: ELISA, coated antigen, B-cell supernatant, IgG 59,9 ng/ml
[4] = biological target: recombinant Fc chimeric conjugate of human HER3 (human) (UniProt P21860); assay: as above
[5] = biological target: recombinant Fc chimeric conjugate of human EGFR (human) (UniProt P00533); assay: ELISA, coated antigen, B-cell supernatant, IgG 565,3 ng/ml
[6] = biological target: recombinant Fc chimeric conjugate of human HER3 (human) (UniProt P21860); assay: as above
[7] = biological target: recombinant Fc chimeric conjugate of human EGFR (human) (UniProt P00533); assay: ELISA, coated antigen, B-cell supernatant, IgG 1170,2 ng/ml
[8] = biological target: recombinant Fc chimeric conjugate of human HER3 (human) (UniProt P21860); assay: as above
[9] = biological target: recombinant Fc chimeric conjugate of human EGFR (human) (UniProt P00533); assay: ELISA, coated antigen, B-cell supernatant, IgG 250,4 ng/ml
[10] = biological target: recombinant Fc chimeric conjugate of human HER3 (human) (UniProt P21860); assay: as above
[11] = biological target: recombinant Fc chimeric conjugate of human EGFR (human) (UniProt P00533); assay: ELISA, coated antigen, B-cell supernatant, IgG 1143,3 ng/ml
[12] = biological target: recombinant Fc chimeric conjugate of human HER2 (human) (UniProt P04626); assay: as above
[13] = biological target: recombinant Fc chimeric conjugate of human EGFR (human) (UniProt P00533); assay: ELISA, coated antigen, B-cell supernatant, IgG 1912,4 ng/ml
[14] = biological target: recombinant Fc chimeric conjugate of human HER2 (human) (UniProt P04626); assay: as above

UniProt P21860, sequence (P21860 20-643, change not shown): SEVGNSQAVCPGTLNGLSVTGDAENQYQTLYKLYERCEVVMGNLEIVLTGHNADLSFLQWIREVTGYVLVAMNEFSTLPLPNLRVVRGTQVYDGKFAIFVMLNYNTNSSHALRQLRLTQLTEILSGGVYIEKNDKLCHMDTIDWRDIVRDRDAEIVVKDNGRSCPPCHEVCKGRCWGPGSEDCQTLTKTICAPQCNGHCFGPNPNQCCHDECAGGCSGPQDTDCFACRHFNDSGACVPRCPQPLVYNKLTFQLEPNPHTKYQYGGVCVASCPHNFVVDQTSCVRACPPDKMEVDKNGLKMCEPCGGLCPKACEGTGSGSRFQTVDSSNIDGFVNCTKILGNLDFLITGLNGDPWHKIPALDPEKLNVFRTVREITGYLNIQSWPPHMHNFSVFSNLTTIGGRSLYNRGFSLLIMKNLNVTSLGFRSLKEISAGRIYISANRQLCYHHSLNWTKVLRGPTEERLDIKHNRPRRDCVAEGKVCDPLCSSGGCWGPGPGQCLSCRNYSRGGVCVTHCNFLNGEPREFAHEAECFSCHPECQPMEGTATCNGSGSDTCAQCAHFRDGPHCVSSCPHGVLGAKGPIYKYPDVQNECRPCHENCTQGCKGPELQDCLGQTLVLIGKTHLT

- Optical density (OD) [1]: 2.7 OD
- Optical density (OD) [2]: 2.1 OD
B1: Antibody 52 (antibody, V domains shown)
VH: QSVEESGGRLVTPGTALTLTCTVSGFSLSSGDMSWVRQAPGKGLEWIGYIWSGVSTYYANWAKGRFTISKTSSTTVDLKMTSLTIEDTATYFCARVDFYSYVYSLWGPGTLVTVSS
VL: ALVMTQTPASVEAAVGGTVTIKCQASQSISSCLAWYQQKPGQPPKLLIYSASTLASGVPSRFKGSGSGTEYTLTISGVECADAATYYCQQHYTSNNIDNAFGGGTEVVVK

- Optical density (OD) [3]: 2.8 OD
- Optical density (OD) [4]: 1 OD
B2: Antibody 60 (antibody, V domains shown)
VH: QSLEESGGRLVTPGGSLTLTCTVSGSDISSYDMSWVRQAPGKGLEWIGYIWSGTTTYYANWAKGRFTISKTSSTTVDLKMTSLTTEDTATYFCATVNIYTYVYSLWGPGTLVTVSS
VL: B1 VL with L2Y, V3D, A13V, S31T, C32A, P40S, S50L, T93S, S94G, I97V

- Optical density (OD) [5]: 3.4 OD
- Optical density (OD) [6]: 3.1 OD
B3: Antibody 56 (antibody, V domains shown)
VH: QSLEESGGRLVTPGTPLTLTCTASGFSLSSYDLSWVRQAPGKGLEWIAYIWSGDKTYYANWAKGRFTISKTSSTTVDLKMTSLTTEDTATYFCATVNIYSYVYSLWGPGTLVTVSS
VL: B1 VL with L2Y, V3D, A13V, S31T, C32A, P40S, S50L, T93S, I97V

- Optical density (OD) [7]: 0.3 OD
- Optical density (OD) [8]: 2.3 OD
B4: Antibody 32 (antibody, V domains shown)
VH: QSVEESGGRLVTPGTPLTLTCTVSGFSLSSYDMSWVRQAPGKGLEWIGFIDGDSNTYDATWAKGRFTISKTSTTVDLKITSPTTEDTATYFCTRGFNLWGQGTLVTVSS
VL: DVVMTQTPASVSEPVGGTVTIKCQASQSISSYLAWYQQKPGQPPKLLIYKASTLASGVSSRFKGSGSGTEFTLTISDLECADAATYYCQCSAGGRSGIGGFGGGTEVVVK

- Optical density (OD) [9]: 2.7 OD
- Optical density (OD) [10]: 3.3 OD
B5: Antibody 55 (antibody, V domains shown)
VH: B2 VH with T56I, N60S, A62P, T95A, V96I
VL: AYDMTQTPASVEAAVGGTVTIKCQASESIYSSLAWYQQKSGQPPKLLIYLASTLASGVPSRFKGSGSGTDYTLTISGVECADAATYYCQQHYSGSNVDNAFGGGTEVVVK

- Optical density (OD) [11]: 0.3 OD
- Optical density (OD) [12]: 3.1 OD
B6: Antibody 34 (antibody, V domains shown)
VH: QEQLVESGGGLVQPEGSLTLTCKASGFSFSSGYYMCWVRQAPGKGLEWIACIYADSSESTYYASWAKGRFTISKTSSTTVTLQVTSLTAADTATYFCARWGTVAGYSTFNLWGPGTLVTVSS
VL: DVVMTQTPASVSEPVGGTVTIKCQASQSISTALAWYQQKPGQPPKLLIYFTSTLASGVSSRFKGSGSGAEFTLTISDLECADAATYYCQGYYYVTNFPFGGGTEVVVK

- Optical density (OD) [13]: 0.4 OD
- Optical density (OD) [14]: 3.2 OD
B7: Antibody 6 (antibody, V domains shown)
VH: QSVEESGGRLVTPGTPLTLTCTVSGFSLSSYTMGWVRQAPGKGLEYIGIINTGGYTYYASWAKGRFTISRTSTTVDLSMTSLTTEDTATYFCARVYPGSSCDLWGQGTLVTVSS
VL: DVVMTQTPASVSEPVGGTVTIKCQASQSISSSYLSWYQQKPGQPPKLLIYRASTLESGVPSRFKGSGSGTEFTLTISDLECADAATYYCQCTDYAGSYVGGAFGGGTEVVVK

— patent EP2727942A1
